Test results from patent US20110274704A1.

Experiments:
[1] = molecular target: CD20 on lymphoma and leukemia cell lines (human) (UniProt P11836); test: cell-based or functional assay
[2] = molecular target: fusion protein containing the A3B3 domain of CEA (UniProt P06731); test: competitive ELISA on coated A3B3 fusion protein; competitor HRP-conjugated hMN-14 IgG (1 nM)

CD20 on lymphoma and leukemia cell lines (human), sequence (P11836 whole entry, the tested form may be a part): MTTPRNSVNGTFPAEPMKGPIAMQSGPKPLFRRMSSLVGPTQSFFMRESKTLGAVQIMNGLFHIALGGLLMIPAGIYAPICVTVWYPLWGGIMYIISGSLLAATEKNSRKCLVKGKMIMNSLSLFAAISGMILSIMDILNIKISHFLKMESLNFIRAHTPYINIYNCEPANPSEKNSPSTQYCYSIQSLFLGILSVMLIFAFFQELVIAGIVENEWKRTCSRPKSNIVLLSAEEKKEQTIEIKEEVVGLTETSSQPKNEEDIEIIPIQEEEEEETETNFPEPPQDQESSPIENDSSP

| fold of avidity against TF1 [2] [fold] | Substance | EC50, in vitro cytotoxicity, Daudi and Ramos cells [1] [µM] | EC50, in vitro cytotoxicity, Jeko-1 cells [1] [µM] |
| --- | --- | --- | --- |
|  | 20-Rap (antibody) | 0.0001 | 20 |
| 2 | TF2 (bispecific antibody) |  |  |
